Measured values reported in paper PMC12101283, “Validation and Optimization of PURE Ribosome Display for Screening Synthetic Nanobody Libraries” (Antibodies, 2025).

How the values were obtained:
[1] = biological target: T1, human fatty acid binding protein 4 (Homo sapiens, UniProt P15090); assay: pull-down; His-tagged nanobody captured from E. coli supernatant on Ni-NTA agarose and washed; 100 µL target protein solution (approximately 0.2 mg/mL) added; washes with PBS (10 mM imidazole in the 3rd); elution with 200 mM imidazole; SDS-PAGE; details: both partners purified
T1 construct: The methods describe only the plasmid His-SUMO-hFABP4-(GGGGS)4-SBP; also called hFABP4; FABP4; source: E. coli BL21 (DE3), purified (Ni-NTA, SEC); not shown: His, N-terminal, cleaved; SUMO, N-terminal, cleaved
T1 sequence (P15090 whole entry): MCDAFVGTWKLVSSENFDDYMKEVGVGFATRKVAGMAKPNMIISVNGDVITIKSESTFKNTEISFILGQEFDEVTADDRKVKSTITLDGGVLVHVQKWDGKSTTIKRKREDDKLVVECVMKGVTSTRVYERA

[2] = biological target: T1, human fatty acid binding protein 4; assay: ITC; MicroCal PEAQ ITC, 25 °C, PBS, one binding site model; 50 µM F4_B6 in cell with 550 µM hFABP4 in syringe; details: both partners purified

Binder | binding result [1] | Kd [2]
F4_C9 (VHH, source: E. coli BL21; supernatant of lysed cells (ELISA; captured on Ni-NTA for the pull-down)) VHH: QVQLVESGGGLVQAGGSLRLSCAASGPPFSFVFMGWYRQAPGKEREFVAAIFDFTDETYYADSVKGRFTISRDNAKNTVYLHMNSLKPEDTAVYYCAAARGLNYWNNVYWGQGTQVTVSS | binds | 
F4_B6 (VHH, source: E. coli BL21; supernatant of lysed cells (ELISA; captured on Ni-NTA for the pull-down); purified (Ni-NTA, SEC) for SEC and ITC) VHH: QVQLVESGGGLVQAGGSLRLSCAASGVDMHNFEMGWYRQAPGKEREFVAAIDDVQPLTYYADSVKGRFTISRDNAKNTVYLQMNSLKPEDTAVYYCAAVKGDFWSESNYWGQGTQVTVSS |  | ~295 nM
